“Also recorded” adds a separate entry of the source.
How the values were obtained:
[1] = Size exclusion chromatography of ALK1-Fc preparations (dimers vs aggregates); format: physicochemical
Protocol: The R&D Systems material contains approximately 13% aggregated protein, as shown by the peaks on the left hand side of the graph, as well as some lower molecular weight species. The material of SEQ ID NO:3 is greater than 99% composed of dimers of the appropriate molecular size.
In one approach, a number of different cell culture media were tested. […] The resulting material is comprised of greater than 99% dimers. […] Having identified aggregate formation as a significant problem in ALK1-Fc production, it is expected that other approaches may be developed, including approaches that involve additional purification steps (although such approaches may result in lower yield of purified protein).

[2] = target: T1, GDF7 (Homo sapiens, UniProt Q7Z4P5); assay: Biacore binding to hALK1-Fc: GDF7
T1 sequence (Q7Z4P5 322-450): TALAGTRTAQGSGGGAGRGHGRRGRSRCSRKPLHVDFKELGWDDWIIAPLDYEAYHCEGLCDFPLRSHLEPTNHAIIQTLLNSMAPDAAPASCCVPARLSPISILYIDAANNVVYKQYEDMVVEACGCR
Protocol: (§1) ALK1 is a type 1 receptor for ligands of the TGFβ family. Multiple members of the TGFβ family were tested for binding to a human ALK1-Fc fusion protein, using a Biacore™ system.

[3] = target: T2, BMP10 (Homo sapiens, UniProt O95393); assay: Biacore binding to hALK1-Fc: BMP10
T2 sequence (O95393 317-424): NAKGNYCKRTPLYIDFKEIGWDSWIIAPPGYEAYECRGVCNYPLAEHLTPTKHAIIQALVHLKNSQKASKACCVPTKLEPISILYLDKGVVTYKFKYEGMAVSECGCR
Protocol: as §1

[4] = target: TGFβ (Homo sapiens, UniProt P01137); assay: Biacore binding to hALK1-Fc: TGFβ
Sequence of TGFβ (P01137 279-390): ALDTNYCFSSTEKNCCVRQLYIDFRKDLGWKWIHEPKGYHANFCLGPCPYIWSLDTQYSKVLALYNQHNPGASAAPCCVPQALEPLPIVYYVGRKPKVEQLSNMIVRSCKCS
Protocol: as §1

[5] = target: GDF8 (Homo sapiens, UniProt O14793); assay: Biacore binding to hALK1-Fc: GDF8
Protocol: as §1

[6] = tested on: BMP-9 mediated Smad1/5/8 signaling in HMVEC cells; assay: SBE4-luc luciferase reporter of BMP-9 mediated Smad1/5/8 signaling in HMVEC cells; format: cell-based, human; conditions: 10 μg/ml, rhBMP-9 50 ng/ml
Protocol: Using a luciferase reporter construct under the control of four sequential consensus SBE sites (SBE4-luc), which are responsive to Smad1/5/8-mediated signaling, we measured BMP-9 mediated activity in the presence and absence of hALK1-Fc drug or neutralizing ALK1 specific monoclonal antibody in HMVEC cells. HMVEC cells were stimulated with rhBMP-9 (50 ng/ml), which induced Smad1/5/8-mediated transcriptional activation, evidenced here by the increase in SBE4-luc modulated transcriptional upregulation.

[7] = tested on: angiogenesis in chick chorioallantoic membrane; assay: CAM (chick chorioallantoic membrane) angiogenesis assay; format: in vivo
Source text: In preferred embodiments, an ALK1 ECD polypeptide binds to one or more of GDF5, GDF6, GDF7, BMP9 and BMP10. […] Binding may be assessed using purified proteins in solution or in a surface plasmon resonance system, such as a Biacore™ system. […] Bioassays for angiogenesis inhibitory activity include the chick chorioallantoic membrane (CAM) assay, the mouse corneal micropocket assay, or an assay known in the art for measuring the effect of administering isolated or synthesized proteins on implanted tumors. The CAM assay is described by O'Reilly, et al., in “Angiogenic Regulation of Metastatic Growth” Cell, 1994; 79 (2):315-328. Briefly, 3 day old chicken embryos with intact yolks are separated from the egg and placed in a petri dish. After 3 days of incubation, a methylcellulose disc containing the protein to be tested is applied to the CAM of individual embryos. After 48 hours of incubation, the embryos and CAMs are observed to determine whether endothelial growth has been inhibited. The mouse corneal micropocket assay involves implanting a growth factor-containing pellet, along with another pellet containing the suspected endothelial growth inhibitor, in the cornea of a mouse and observing the pattern of capillaries that are elaborated in the cornea. Other assays are described in the Examples.
VEGF and FGF are well-known to stimulate angiogenesis. A CAM (chick chorioallantoic membrane) assay system was used to assess the angiogenic effects of GDF7.
ALK1-Fc fusions were tested for anti-angiogenic activity in the CAM assay.
ALK1-Fc proteins and a commercially available, anti-angiogenic anti-VEGF monoclonal antibody were compared in the CAM assay. The ALK1-Fc proteins had similar potency as compared to anti-VEGF. The anti-VEGF antibody bevacizumab is currently used in the treatment of cancer and macular degeneration in humans.

[8] = tested on: ocular angiogenesis; assay: Mouse corneal micropocket assay; format: in vivo; conditions: intraperitoneally; identical weight/weight dosages
Source text: In preferred embodiments, an ALK1 ECD polypeptide binds to one or more of GDF5, GDF6, GDF7, BMP9 and BMP10. […] Binding may be assessed using purified proteins in solution or in a surface plasmon resonance system, such as a Biacore™ system. […] Bioassays for angiogenesis inhibitory activity include the chick chorioallantoic membrane (CAM) assay, the mouse corneal micropocket assay, or an assay known in the art for measuring the effect of administering isolated or synthesized proteins on implanted tumors. The CAM assay is described by O'Reilly, et al., in “Angiogenic Regulation of Metastatic Growth” Cell, 1994; 79 (2):315-328. Briefly, 3 day old chicken embryos with intact yolks are separated from the egg and placed in a petri dish. After 3 days of incubation, a methylcellulose disc containing the protein to be tested is applied to the CAM of individual embryos. After 48 hours of incubation, the embryos and CAMs are observed to determine whether endothelial growth has been inhibited. The mouse corneal micropocket assay involves implanting a growth factor-containing pellet, […] of capillaries that are elaborated in the cornea. Other assays are described in the Examples.
Similar data were obtained when a Matrigel plug impregnated with VEGF was implanted in a non-ocular location.

Kd [2]: ~50 nM | Kd [3]: ~3 nM | binding to hALK1-Fc [4]: failed to show substantial binding | binding to hALK1-Fc [5]: failed to show substantial binding
Substance: hALK1-Fc: extracellular domain of human ALK1 (amino acids 22-120) fused to a human IgG1 Fc with a minimal linker (SEQ ID NO:3/14)
dimers [1]: greater than 99% | diminished transcriptional response (SBE4-luc) [6]: ~60% | anti-angiogenic effect compared with anti-VEGF monoclonal antibody [7]: comparable to the effects of the anti-VEGF antibody | anti-angiogenic effect on angiogenesis stimulated by VEGF, FGF and GDF7 [7]: inhibits angiogenesis stimulated by VEGF, FGF and GDF7 | ocular angiogenesis [8]: significantly inhibited ocular angiogenesis; also recorded: to the same degree as anti-VEGF; also recorded: comparable effects

— patent US20130202594A1, “ALK1 Antagonists and Their Uses in Treating Renal Cell Carcinoma” (priority 2012, published 2013)
